In general, Kd refers to the concentration at which binding is half-saturated.

For 14 molecules, Kd results are on record in paper PMC5522039, “Non-invasive assessment of murine PD-L1 levels in syngeneic tumor models by nuclear imaging with nanobody tracers” (Oncotarget, 2017).

Where a chain is given by its changes, count along the chain named.

B1: Nb E1 (HA-tagged, in periplasmic extract) (VHH)
VHH: QVQLQESGGGLVQAGGSLRLSCATSGSIFSIISMGWYRQAPGKQRELVALVFRGGSTVYADSVKGRFTISGDIAKNTVYLQMDSLKPEDTAVYYCNVKSIGTAQYWGQGTQVTVSS
notes: source: E. coli WK6 (pHEN4), crude periplasmic extract
B2: Nb C6 (HA-tagged, in periplasmic extract) (VHH)
VHH: QVQLQESGGGLVQAGDSLRLSCAASGSTVSSSMMAWWRQTPGNQRELVALVASGNNTNYVDSVKGRFTVSRDNAKNTMYLQMNSLKPEDTAVYYCRILSVNGIWYWGQGTQVTVSS
notes: as for B1
B3: Nb C13 (HA-tagged, in periplasmic extract) (VHH)
VHH: B2 VHH with A14T, D16G, M33T, W37Y, E46D, A52G, N55G, T57I, R71I
notes: as for B1
B4: Nb C12 (HA-tagged, in periplasmic extract) (VHH)
VHH: B2 VHH with A14T, D16G, M33T, N55G, P87A
notes: as for B1
B5: Nb C14 (HA-tagged, in periplasmic extract) (VHH)
VHH: B2 VHH with A14T, D16G, S30G, M33T, A52G, S53L, N55G, R71I, K75E, P87F
notes: as for B1
B6: Nb C10 (HA-tagged, in periplasmic extract) (VHH)
VHH: B2 VHH with A14T, D16G, M33T, N55G, V100M
notes: as for B1
B7: Nb C11 (HA-tagged, in periplasmic extract) (VHH)
VHH: B2 VHH with A14T, D16G, M33T, N55G
notes: as for B1
B8: Nb C9 (HA-tagged, in periplasmic extract) (VHH)
VHH: B2 VHH with D16E, A24G, M33T, N55G, V100M
notes: as for B1
B9: Nb C7 (HA-tagged, in periplasmic extract) (VHH)
VHH: QVQLQESGGGSVQAGESLTLSCTASGSSLSHKSVGWWRQTPGNQRELVALVASGNNTNYVDSVKGRFTVSRDNAKNTMYLQMNSLKPEDTAVYYCRILSVNGIWYWGQGTQVTVSS
notes: as for B1
B10: Nb B1 (HA-tagged, in periplasmic extract) (VHH)
VHH: QVQLQESGGGLVHPGGSLRLSCAASGFSLDNYAIGWFRQAPGKEREGVSCISSGSEGRRYYADFVKGRFTISRDNAKNTAFLQMNSLKPEDTADYYCATVGFCSSQYGMEFVGDYWGQGTQVTVSS
notes: as for B1
B11: Nb D1 (HA-tagged, in periplasmic extract) (VHH)
VHH: QVQLQESGGGLVQAGGSLRLSCAASGITVSINAMAWYRQPPGKQRELVALIIGGSTRYADSVKGRFTISRDNAKNTVYLQMNSLKPEDTAVYACNTRAYWGQGTQVTVSS
notes: as for B1
B12: Nb C15 (HA-tagged, in periplasmic extract) (VHH)
VHH: QVQLQESGGGLVQTGGSLRVSCAVSGSTVSRSTMAWWRQTPGNQRELVALVDSGGKSNYVDSVKGRFTISTDNAKNTMYLQMNSLKPEDTAVYYCRILSVQGIWYWGQGTQVTVSS
notes: as for B1
B13: Nb C16 (HA-tagged, in periplasmic extract) (VHH)
VHH: B12 VHH with T14A, R19K, R31S, Q101K
notes: as for B1
B14: Nb A1 (HA-tagged, in periplasmic extract) (VHH)
VHH: QVQLQESGGGLVQPGGSLRLSCAASGFTLDYYAIGWFRQAPGKEREGVSCISSSDGSTYYADSVKGRFTISRDNAKNTVYLQMSSLKPEDTAVYYCGISGSCLLEDYGMDYWGKGTQVTVSS
notes: as for B1

T1 sequence (Q9EP73 19-239): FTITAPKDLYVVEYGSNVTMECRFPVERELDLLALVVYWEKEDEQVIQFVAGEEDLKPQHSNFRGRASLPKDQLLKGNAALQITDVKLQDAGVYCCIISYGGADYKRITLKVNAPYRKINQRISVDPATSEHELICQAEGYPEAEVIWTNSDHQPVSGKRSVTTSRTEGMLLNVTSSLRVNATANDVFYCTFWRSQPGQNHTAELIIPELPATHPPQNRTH
T2 sequence (Q9NZQ7 19-238): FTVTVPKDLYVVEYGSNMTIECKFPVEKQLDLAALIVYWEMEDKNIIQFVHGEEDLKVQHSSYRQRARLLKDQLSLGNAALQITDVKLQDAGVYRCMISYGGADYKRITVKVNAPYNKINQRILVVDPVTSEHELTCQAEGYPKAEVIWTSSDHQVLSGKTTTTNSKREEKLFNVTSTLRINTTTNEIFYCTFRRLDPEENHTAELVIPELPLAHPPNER

One assay addresses T1, Mouse PD-L1 Fc-fusion protein (R&D Systems, 1019-B7) (Mus musculus, UniProt Q9EP73).
T1 construct: programmed death-ligand 1 (PD-L1, B7-H1, CD274), mouse; also called moPD-L1; B7-H1; source: bought: R&D Systems (1019-B7)
Kind of assay: SPR; Biacore T200, 25°C, HBS (0.01 M HEPES pH 7.4, 0.15 M NaCl, 3 mM EDTA, 0.005% Tween 20); mouse or human PD-L1 Fc-fusion protein amine-coupled on a CM5 chip (650-900 RU); Nb in crude periplasmic extract as analyte, its concentration estimated by CFCA; 9 dilutions, 120 s association, 160 s dissociation; 1-to-1 fit; affinity estimations. The settings on record: one partner purified.
Regarding B1, the Kd is 2.3 nM.
Regarding B2, the Kd is 0.289 nM.
Still for that read-out and setting: the result for B3 reads 33 nM; that for B4, 11.4 nM.
The same measure, in the same setting: the result for B5 reads 1.8 nM; that for B6, 6.7 nM; that for B7, 12 nM.
For B8, the Kd was 2.2 nM.
Still for that read-out and setting: the result for B9 reads 3.1 nM; that for B10, 123 nM; that for B11, 12 nM.
For B12, the Kd was 6.5 nM.
For B13, the Kd was 15 nM.

A further assay addresses T2, Human PD-L1 Fc-fusion protein (R&D Systems, 156-B7) (Homo sapiens, UniProt Q9NZQ7).
T2 construct: programmed death-ligand 1 (PD-L1, B7-H1, CD274), human; also called huPD-L1; B7-H1; source: bought: R&D Systems (156-B7)
The assay is described as above. To be noted: one partner purified.
B1: the Kd is 12 nM.
With B2, the Kd was 94 nM.
With B3, the Kd is 162 nM.
In the case of B4, the equilibrium dissociation constant (Kd) is 181 nM.
Still for that read-out and setting: the same measure for B5: 71 nM; for B6: 141 nM.
On the same count and under the same terms, the same measure for B7: 246 nM.
The same measure, in the same setting: the result for B8 reads 44 nM.
With B9, the Kd is 27 nM.
On to B10, for which the Kd was 6 nM.
As for B11, the Kd was 291 nM.
With B14, the Kd is 23 nM.
On to B12, for which the Kd is 335 nM.
Regarding B13, the Kd was 520 nM.
